{"source": "paper PMC5792622", "about": "(Nature Communications, 2018)", "proteins": {"B1": {"name": "hexon protein of HAdV5^HVR7 (human adenovirus type 5 with four mutations in hypervariable region 7 of the hexon) (natural protein)", "chain": "MATPSMMPQWSYMHISGQDASEYLSPGLVQFARATETYFSLNNKFRNPTVAPTHDVTTDRSQRLTLRFIPVDREDTAYSYKARFTLAVGDNRVLDMASTYFDIRGVLDRGPTFKPYSGTAYNALAPKGAPNPCEWDEAATALEINLEEEDDDNEDEVDEQAEQQKTHVFGQAPYSGINITKEGIQIGVEGQTPKYADKTFQPEPQIGESQWYETEINHAAGRVLKKTTPMKPCYGSYAKPTNENGGQGILVKQQNGKLESQVEMQFFSTTEATAGNGDNLTPKVVLYSEDVDIETPDTHISYMPTIKEGNSRELMGQQSMPNRPNYIAFRDNFIGLMYYNSTGNMGVLAGQASQLNAVVDLQDRNTELSYQLLLDSIGDRTRYFSMWNQAVDSYDPDVRIIENHGTEDELPNYCFPLGGVGNNSTYTKVKPKTGQENGWEKDATEFSDKNEIRVGNNFAMEINLNANLWRNFLYSNIALYLPDKLKYSPSNVKISDNPNTYDYMNKRVVAPGLVDCYINLGARWSLDYMDNVNPFNHHRNAGLRYRSMLLGNGRYVPFHIQVPQKFFAIKNLLLLPGSYTYEWNFRKDVNMVLQSSLGNDLRVDGASIKFDSICLYATFFPMAHNTASTLEAMLRNDTNDQSFNDYLSAANMLYPIPANATNVPISIPSRNWAAFRGWAFTRLKTKETPSLGSGYDPYYTYSGSIPYLDGTFYLNHTFKKVAITFDSSVSWPGNDRLLTPNEFEIKRSVDGEGYNVAQCNMTKDWFLVQMLANYNIGYQGFYIPESYKDRMYSFFRNFQPMSRQVVDDTKYKDYQQVGILHQHNNSGFVGYLAPTMREGQAYPANFPYPLIGKTAVDSITQKKFLCDRTLWRIPFSSNFMSMGALTDLGQNLLYANSAHALDMTFEVDPMDEPTLLYVLFEVFDVVRVHRPHRGVIETVYLRTPFSAGNATT", "modifications": "biotin (NHS-biotin), for the SPR only", "notes": "also called HAdV5^HVR7 hexon"}}, "target": "the molecule itself", "test": "crystal structure", "data": [{"protein": "B1", "values": [{"measurement": "stoichiometry N", "result": 3}]}]}
